Source: US20260028403A1 (Zymeworks, published 2026)

Columns and labels:
[1] = biological target: T1, Recombinant human/cynomolgus/rhesus macaque CD28 mouse IgG2a Fc fusion protein (Acro Biosystems) (human/cynomolgus/rhesus macaque, UniProt P10747 19-152); experiment: SPR Biacore T200, CD28-mIgG2a Fc on CM5
T1 construct: bought; also called huCD28

[2] = biological target: T2, CD28 on primary human T cells (human, UniProt P10747 19-220); experiment: cell-based or functional assay
[3] = biological target: T2, CD28 on primary human T cells; experiment: cell-based or functional assay; remark: listed apart in the source
[4] = biological target: T3, Recombinant human CD3 epsilon/delta heterodimer, his tag protein (Acro Biosystems) (human, UniProt P07766 23-126; P04234 22-105); experiment: SPR Biacore T200, CD3 e/d-his on CM5, construct injected, 1:1 model;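 further: measured at 25 °C in HEPES-buffered saline with EDTA and Tween 20 at pH 7.4, values are means of three independent runs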
T3 construct: bought
Protocol: All SPR binding experiments were carried out using a BiacoreT200 instrument at 25° C. with 10 mM HEPES, 150 mM NaCl, 3 mM EDTA, and 0.05% Tween 20 at pH 7.4. Recombinant human CD3 epsilon/delta heterodimer, his tag protein (Acro Biosystems) was covalently immobilized on CM5 sensor chips by amine coupling. Purified antibody constructs to be tested were indirectly captured on the sensor chip by binding to the recombinant CD3 protein when injected at 30 μL/min for 140-500 s following a dissociation for 600-1200 s. Resultant kₒₙ, koff and KD values were determined from fitting the sensorgrams using the 1:1 binding model with reported values as the mean of three independent runs.

Human CLDN18.2 = biological target: T4, Human CLDN18.2 (human); experiment: flow cytometry, SNU 601 cells
T4 construct: on transfected HEK293-6E cells or native on SNU 601 cells
Protocol: To determine the impact of the trispecific construct format on the construct's ability to binding CLDN18.2, the binding affinity to CLDN18.2 was measured for certain constructs using flow cytometry as described below.
To that end, cells (>80% viability) were resuspended to 1×10⁶ cells/mL in FACS buffer (PBS+2% FBS; Gibco) and seeded in a 96 well v-bottom plate (Sarstedt). Cells were mixed with antibody dilutions and incubated at 4° C. for one hour. Following incubation, cells were washed twice by adding 150 mL FACS buffer and centrifuging for 400×g for 3 minutes. […] Cells were washed twice by adding 150 mL FACS buffer and centrifuging for 400×g for 3 minutes. Cells were resuspended in FACS buffer and acquired on the BD LSRFortessa Cell Analyzer.

[5] = biological target: T1, Recombinant human/cynomolgus/rhesus …; experiment: SPR, in-format anti-CD28 variants, huCD28
[6] = biological target: T1, Recombinant human/cynomolgus/rhesus …; experiment: SPR Biacore T200, CD28-mIgG2a Fc on CM5, construct injected, 1:1 model;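 further: fc fusion captured by amine coupling, run at 25 °C in HEPES buffer pH 7.4, association 140-500 s then dissociation 600-1200 s, values averaged over three independent runs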
Protocol: All SPR binding experiments were carried out using a BiacoreT200 instrument at 25° C. with 10 mM HEPES, 150 mM NaCl, 3 mM EDTA, and 0.05% Tween 20 at pH 7.4. Recombinant human/cynomolgus/rhesus macaque CD28 mouse IgG2a Fc fusion protein (Acro Biosystems) was covalently immobilized on CM5 sensor chips by amine coupling. Purified antibody constructs to be tested were injected on the sensor chip at 30 μL/min for 140-500 s following a dissociation for 600-1200 s. Resultant kₒₙ, koff and KD values were determined from fitting the sensorgrams using the 1:1 binding model with reported values as the mean of three independent runs.

[7] = biological target: T2, CD28 on primary human T cells; experiment: cell-based or functional assay; remark: listed apart in the source
[8] = biological target: T2, CD28 on primary human T cells; experiment: cell-based or functional assay; remark: listed apart in the source
[9] = biological target: T2, CD28 on primary human T cells; experiment: cell-based or functional assay; remark: listed apart in the source
[10] = biological target: T5, Recombinant human/Cynomolgus/Rhesus macaque CD28 Protein, His Tag (Acro Biosystems) (human/cynomolgus/rhesus macaque, UniProt P10747 19-152); experiment: SPR, v37634 captured on anti-human IgG Fc on CM5, CD28-his tag flowed
T5 construct: used only for v37634; also called CD28-his tag

Binder	Kd [4] [nM]	koff [4] [s⁻¹]	kon [4] [M⁻¹ s⁻¹]	Bmax (Human CLDN18.2) [MFI]	EC50 (Human CLDN18.2) [nM]	Fold-change from WT [5] [fold]	Kd [5] [nM]	koff [5] [s⁻¹]	kon [5] [M⁻¹ s⁻¹]	IFNg EC50, T cells + SNU 601 [7] [nM]	IFNg maximum cytokine, T cells + SNU 601 [7] [pg/mL]	IL-2 EC50, T cells + SNU 601 [7] [nM]	IL-2 maximum cytokine, T cells + SNU 601 [7] [pg/mL]	IC50, TDCC on SNU 601-RFP, 1:5 E:T [8] [nM]	IC50, TDCC on SNU 601-RFP, 2:1 E:T [8] [nM]	Maximum Mean Cytotoxicity (%), 1:5 E:T [8] [%]	Maximum Mean Cytotoxicity (%), 2:1 E:T [8] [%]	IFNg mean cytokine, T cells alone, 45 nM construct [9] [pg/mL]	IL-2 mean cytokine, T cells alone, 45 nM construct [9] [pg/mL]	further results
v37690 (trispecific antibody, human IgG1, kappa, L234A L235A, also called v37638 format, CD28 VH Y1112S) heavy 1: not shown heavy 2: QVQLVESGGGLVQPGGSLRLSCSVSGIDLSSNPMIWVRQAPGKGLQYIGIIDTDGSTYYADWAKGRFTISKDSTTVYLQINSPRAEDTAVYYCARRLHGSSNGYYDDLWGQGTLVTVSSGGGGSGGGGSGGGGSGGGGSDGQMTQSPSSVSASVGDRVTITCQASQSIYSYLSWYQQKPGQRPKLLIYKASTLASGVPSRFSGSGSGTDFTLTISSVQPEDFATYYCQQGYTVTNVDKNTFGGGTKVEIKAAEPKSSDKTHTCPPCPAPEAAGGPSVFLFPPKPKDTLMISRTPEVTCVVVSVSHEDPEVKFNWYVDGVEVHNAKTKPREEQYNSTYRVVSVLTVLHQDWLNGKEYKCKVSNKALPAPIEKTISKAKGQPREPQVYVLPPSRDELTKNQVSLLCLVKGFYPSDIAVEWESNGQPENNYLTWPPVLDSDGSFFLYSKLTVDKSRWQQGNVFSCSVMHEALHNHYTQKSLSLSPG light: DIQMTQSPSSLSASVGDRVTITCRASESVEYYVTSLMQWYQQKPGKAPKLLIYAASNVDSGVPSRFSGSGSGTDFTLTISSLQPEDIATYYCQQSRKVPFTFGGGTKVEIKRTVAAPSVFIFPPSDEQLKSGTASVVCLLNNFYPREAKVQWKVDNALQSGNSQESVTEQDSKDSTYSLSSTLTLSKADYEKHKVYACEVTHQGLSSPVTKSFNRGEC																				binding result [1]: no binding; IL-2 maximum cytokine, T cells alone [2]: 243 pg/mL; IL-2 maximum cytokine, T cells with SNU 601 cells [2]: 2700 pg/mL; TNFa maximum cytokine, T cells alone [2]: 23 pg/mL; TNFa maximum cytokine, T cells with SNU 601 cells [2]: 518 pg/mL; IC50, T cell-dependent cytotoxicity on SNU 601 [3]: 0.00121 nM; Maximum Killing (%), SNU 601 [3]: 92.3%
v37642 (trispecific antibody, human IgG1, kappa, L234A L235A, also called Cldn18.2xCD28xCD3 trispecific) heavy 1: not shown heavy 2: EVQLVESGGGLVQPGGSLRLSCAASGVTFNYYGMSWIRQAPGKGLEWVASITSSGGRIYYPDSVKGRFTISRENTQKTLYLQMNSLRAEDTAVYYCTLDGRDGWVAYWGQGTLVTVSSGGGGSGGGGSGGGGSGGGGSNFMLTQPHSVSESPGKTVTISCKRNTGNIGSNYVNWYQQHEGSSPTTIIYRNDKRPDGVSDRFSGSIDRSSKSASLTISNLKTEDEADYFCQSYSSGFIFGGGTKLTVLAAEPKSSDKTHTCPPCPAPEAAGGPSVFLFPPKPKDTLMISRTPEVTCVVVSVSHEDPEVKFNWYVDGVEVHNAKTKPREEQYNSTYRVVSVLTVLHQDWLNGKEYKCKVSNKALPAPIEKTISKAKGQPREPQVYVLPPSRDELTKNQVSLLCLVKGFYPSDIAVEWESNGQPENNYLTWPPVLDSDGSFFLYSKLTVDKSRWQQGNVFSCSVMHEALHNHYTQKSLSLSPG light: DIQMTQSPSSLSASVGDRVTITCRASESVEYYVTSLMQWYQQKPGKAPKLLIYAASNVDSGVPSRFSGSGSGTDFTLTISSLQPEDIATYYCQQSRKVPFTFGGGTKVEIKRTVAAPSVFIFPPSDEQLKSGTASVVCLLNNFYPREAKVQWKVDNALQSGNSQESVTEQDSKDSTYSLSSTLTLSKADYEKHKVYACEVTHQGLSSPVTKSFNRGEC	62	0.0117	189000	9310	24.1	1	42.3	0.00286	70400	0.00367	3040	0.00267	5060	0.0023	0.000166	96.9	98.7	857	2930	Kd [6]: 20.2 nM; koff [6]: 0.00198 s⁻¹; kon [6]: 98200 M⁻¹ s⁻¹
v38990 (trispecific antibody, human IgG1, kappa, L234A L235A, also called v37642 format, CD28 VH Y1113S) heavy 1: not shown heavy 2: EVQLVESGGGLVQPGGSLRLSCAASGVTFNYYGMSWIRQAPGKGLEWVASITSSGGRIYYPDSVKGRFTISRENTQKTLYLQMNSLRAEDTAVYYCTLDGRDGWVAYWGQGTLVTVSSGGGGSGGGGSGGGGSGGGGSNFMLTQPHSVSESPGKTVTISCKRNTGNIGSNYVNWYQQHEGSSPTTIIYRNDKRPDGVSDRFSGSIDRSSKSASLTISNLKTEDEADYFCQSYSSGFIFGGGTKLTVLAAEPKSSDKTHTCPPCPAPEAAGGPSVFLFPPKPKDTLMISRTPEVTCVVVSVSHEDPEVKFNWYVDGVEVHNAKTKPREEQYNSTYRVVSVLTVLHQDWLNGKEYKCKVSNKALPAPIEKTISKAKGQPREPQVYVLPPSRDELTKNQVSLLCLVKGFYPSDIAVEWESNGQPENNYLTWPPVLDSDGSFFLYSKLTVDKSRWQQGNVFSCSVMHEALHNHYTQKSLSLSPG light: DIQMTQSPSSLSASVGDRVTITCRASESVEYYVTSLMQWYQQKPGKAPKLLIYAASNVDSGVPSRFSGSGSGTDFTLTISSLQPEDIATYYCQQSRKVPFTFGGGTKVEIKRTVAAPSVFIFPPSDEQLKSGTASVVCLLNNFYPREAKVQWKVDNALQSGNSQESVTEQDSKDSTYSLSSTLTLSKADYEKHKVYACEVTHQGLSSPVTKSFNRGEC						225	9510			0.604	3290	1.56	5240	0.145	0.00358	95.4	97.8	0.9	1.8	
v38991 (trispecific antibody, human IgG1, kappa, L234A L235A, also called v37642 format, CD28 VH N1111aA) heavy 1: not shown heavy 2: EVQLVESGGGLVQPGGSLRLSCAASGVTFNYYGMSWIRQAPGKGLEWVASITSSGGRIYYPDSVKGRFTISRENTQKTLYLQMNSLRAEDTAVYYCTLDGRDGWVAYWGQGTLVTVSSGGGGSGGGGSGGGGSGGGGSNFMLTQPHSVSESPGKTVTISCKRNTGNIGSNYVNWYQQHEGSSPTTIIYRNDKRPDGVSDRFSGSIDRSSKSASLTISNLKTEDEADYFCQSYSSGFIFGGGTKLTVLAAEPKSSDKTHTCPPCPAPEAAGGPSVFLFPPKPKDTLMISRTPEVTCVVVSVSHEDPEVKFNWYVDGVEVHNAKTKPREEQYNSTYRVVSVLTVLHQDWLNGKEYKCKVSNKALPAPIEKTISKAKGQPREPQVYVLPPSRDELTKNQVSLLCLVKGFYPSDIAVEWESNGQPENNYLTWPPVLDSDGSFFLYSKLTVDKSRWQQGNVFSCSVMHEALHNHYTQKSLSLSPG light: DIQMTQSPSSLSASVGDRVTITCRASESVEYYVTSLMQWYQQKPGKAPKLLIYAASNVDSGVPSRFSGSGSGTDFTLTISSLQPEDIATYYCQQSRKVPFTFGGGTKVEIKRTVAAPSVFIFPPSDEQLKSGTASVVCLLNNFYPREAKVQWKVDNALQSGNSQESVTEQDSKDSTYSLSSTLTLSKADYEKHKVYACEVTHQGLSSPVTKSFNRGEC						6.1	257	0.0145	62900	0.0909	6150	0.0222	9620	0.0127	0.000838	95.6	98.2	15.4	26.5	
v37634 (trispecific antibody, human IgG1, lambda, L234A L235A, CD28 scFv on C-terminus of the CD3 Fab light chain; Het Fc, FcKO; also called CD3xCD28xCldn18.2 trispecific) heavy 1: not shown heavy 2: QVQLVESGGGLVQPGGSLRLSCSVSGIDLSSNPMIWVRQAPGKGLQYIGIIDTDGSTYYADWAKGRFTISKDSTTVYLQINSPRAEDTAVYYCARRLHGSSNGYYDDLWGQGTLVTVSSGGGGSGGGGSGGGGSGGGGSDGQMTQSPSSVSASVGDRVTITCQASQSIYSYLSWYQQKPGQRPKLLIYKASTLASGVPSRFSGSGSGTDFTLTISSVQPEDFATYYCQQGYTVTNVDKNTFGGGTKVEIKAAEPKSSDKTHTCPPCPAPEAAGGPSVFLFPPKPKDTLMISRTPEVTCVVVSVSHEDPEVKFNWYVDGVEVHNAKTKPREEQYNSTYRVVSVLTVLHQDWLNGKEYKCKVSNKALPAPIEKTISKAKGQPREPQVYVLPPSRDELTKNQVSLLCLVKGFYPSDIAVEWESNGQPENNYLTWPPVLDSDGSFFLYSKLTVDKSRWQQGNVFSCSVMHEALHNHYTQKSLSLSPG light: NFMLTQPHSVSESPGKTVTISCKRNTGNIGSNYVNWYQQHEGSSPTTIIYRNDKRPDGVSDRFSGSIDRSSKSASLTISNLKTEDEADYFCQSYSSGFIFGGGTKLTVLGQPKAAPSVTLFPPSSEELQANKATLVCLISDFYPGAVTVAWKADSSPVKAGVETTTPSKQSNNKYAASSYLSLTPEQWKSHRSYSCQVTHEGSTVEKTVAPTECSGGGGSGDIQMTQSPSSLSASVGDRVTITCRASESVEYYVTSLMQWYQQKPGKAPKLLIYAASNVDSGVPSRFSGSGSGTDFTLTISSLQPEDIATYYCQQSRKVPFTFGGGTKVEIKGGGGSGGGGSGGGGSGGGGSQVQLQESGPGLVKPSETLSLTCAVSGFSLTSYGVHWIRQPPGKGLEWLGVIWPGGGTNFNSALMSRLTISEDTSKNQVSLKLSSVTAADTAVYYCARDRAYGNYLYAMDYWGQGTLVTVSS	77.6	0.0123	163000	6840	27.2															Kd [10]: 258 nM; koff [10]: 0.00187 s⁻¹; kon [10]: 7230 M⁻¹ s⁻¹
